Assay [1] addresses SP34-binding peptide 15253. Description: flow cytometry on peptide-displaying E. coli, 10 nM SP34-dylight-488 with 100 nM isotype control, normalised to peptide expression (yPet-Mona). On the technique in general: Flow cytometry measures light scatter and fluorescence of single cells or particles in a stream.
In assay [2] the target is SP34-binding peptide 15253. Description: flow cytometry on peptide-displaying E. coli, 100 nM SP34-dylight-488 with 100 nM isotype control, normalised to peptide expression (yPet-Mona).
Assay [3] deals with SP34-binding peptide 15253. Put plainly: flow cytometry on peptide-displaying E. coli, 1 nM SP34-dylight-488 with 100 nM isotype control, normalised to peptide expression (yPet-Mona).
In assay [4] the target is SP34-binding peptide 15253. Description: flow cytometry on peptide-displaying E. coli, 1 nM SP34-dylight-488 with 100 nM free human CD3ε as competitor, normalised to peptide expression (yPet-Mona).
In assay [5] the target is SP34-binding peptide 15253. Description: flow cytometry on peptide-displaying E. coli, 0.1 nM SP34-dylight-488 with 100 nM isotype control, normalised to peptide expression (yPet-Mona).

We go through 1 molecule from patent US20160194399A1.

B1: Anti-CD3ε antibody SP34 (antibody, V domains shown)
VH: EVQLVESGGGLVQPKGSLKLSCAASGFTFNTYAMNWVRQAPGKGLEWVARIRSKYNNYATYYADSVKDRFTISRDDSQSILYLQMNNLKTEDTAMYYCVRHGNFGNSYVSWFAYWGQGTLVTVSA
VL: QAVVTQESALTTSPGETVTLTCRSSTGAVTTSNYANWVQEKPDHLFTGLIGGTNKRAPGVPARFSGSLIGDKAALTITGAQTEDEAIYFCALWYSNLWVFGGGTKLTVL
On to B1, for which the expression normalized binding in assay [1] is 0.98; in assay [2], 2.53; in assay [3], 0.68; in assay [4], 0.53; in assay [5] it was 0.55.
